Experimental data published in patent US10239923B2, “Specific amyloid beta binding peptides and the use of same for treating and diagnosing alzheimer's dementia” (Forschungszentrum Juelich GmbH, priority 2015, dated 2019).
Square brackets hold non-standard residues; d marks the D form.

Experiments:
[1] = target: T1, Aβ1-42 monomers versus Aβ1-42 oligomers and fibrils (biotinylated, D-enantiomeric, immobilized) (Homo sapiens, UniProt P05067); assay: Monoclonal phage ELISA; type: binding; settings: individual phage clones; species immobilized at 320 nM; absorption at 450 nm normalized with 6E10 control; higher = more monomer-specific
T1 construct: biotinylated, D-enantiomeric Aβ1-42 monomers
Description: The specificity of the peptide results from the difference in % of the absorption values for the target molecule or the bait (for example A beta monomer) and the normalized absorption values for the competitors (for example A beta oligomers and fibrils) in the monoclonal phage ELISA.
The absorption values then constitute the affinity of individual phage clones for a particular immobilized A beta species. Here, the specificity is not dependent on the strength of the affinity, but instead only on the difference of the affinities between the species. […] The terms “competitors” and “target molecule” or “bait” are defined as specified below.
A method for normalizing the obtained values should therefore be performed. From all absorption values of the individual phage clone in the monoclonal phage ELISA, the values of the phage antibodies tested for cross-reaction can be used as background. This occurs in accordance with the previously immobilized species. The signal values of the phage antibody from the reaction trays with immobilized Aβ1-42 oligomers for this purpose can be removed from the signal values of the individual phage clone from the reaction trays with immobilized Aβ1-42 oligomers. A similar process is then carried out for Aβ1-42 monomers. In this way, a possible background signal of the phage antibody can initially be calculated from the signals of the individual phage clone. […] Only in this way is an equal interpretation of the results particularly in respect of the assessment of the specificity of the individual phage clone possible (see FIG. 2).
The affinity of individual phage clones with respect to the target molecule and the competitors was examined by means of ELISA. For this purpose, all three species were immobilized in biotinylated form on a polystyrene surface at streptavidin bound thereon. Since, during the panning rounds, oligomers and fibrils were added at the same time as competitors, these two species were immobilized in the monoclonal phage ELISA, likewise mixed. […] The streptavidin-coated microtiter plates were pre-washed as specified by the manufacturer. […] For immobilization, 100 μl were used per reaction tray and were incubated for 15 minutes at room temperature. After having washed the entire plate(s) twice with 150 μl 1×TBS per reaction tray, a blocking step with 150 μl 1×TBS/0.1% (v/v) Tween-20/1% (w/v) BSA was performed for an hour at room temperature. Three washing steps with 150 μl 1×TBS/0.1% (v/v) Tween-20 then followed per reaction tray. The amplified individual phage clones were mixed 1:1 with 1× TBS/1% (w/v) BSA. The antibody 6E10 was diluted 1:10,000 in 1×TBS/0.1% (v/v) Tween-20. […] After washing five times with 150 μl 1×TBS/0.1% (v/v) Tween-20 per reaction tray, 200 μl 1×TBS/0.1% (v/v) Tween-20 were placed in each reaction tray, and the plate(s) incubated for one hour at room temperature. The solutions were removed and replaced as follows: In all reaction trays that had been incubated previously with individual phage clone dilutions or the batch without phages, 100 μl of a phage antibody diluted 1:5,000 in 1×TBS/0.1% (v/v) Tween-20 were now added. The enzyme horseradish peroxidase (HRP) was coupled to this antibody and later served for the conversion of a substrate (TMB). […] At the same time, 100 μl of a second antibody diluted 1:1,000 in 1×TBS/0.1% (v/v) Tween-20 were now added to all reaction trays that had been previously incubated with the dilution of the 6E10 antibody, said second antibody being able to identify and bind to the 6E10 antibody originating from mice. This antibody is also HRP-coupled and thus allows a quantification of the binding of the first antibody to the immobilized target molecules or the plastics surface of the reaction tray. After one hour of incubation at room temperature, the plate(s) was/were washed 10 times with 150 μl 1×TBS/0.1% (v/v) Tween-20 per reaction tray. The signal was detected by adding the substrate 3,3′,5,5′-tetramethylbenzidine (TMB). […]

[2] = target: Aβ1-42 species of different size (Homo sapiens, UniProt P05067); assay: Density gradient centrifugation, tris-tricine SDS gel and silver staining of Aβ1-42 species; type: biochemical; settings: 80 μM Aβ1-42 pre-incubated […], 40 μM peptide for 40 minutes
Protocol: The batch was then incubated either with or without addition of peptide for a further 40 minutes and was then placed on an iodixanol density gradient. The gradient was then centrifuged, wherein the contents of the sample (Aβ1-42 species of different size) diffused within the gradient in accordance with their size and shape. The gradient was fractionated after centrifugation into 15 fractions (1-15), and the first 14 individual fractions were applied to a tris-tricine SDS gel. The contents per fraction were separated electrophoretically. […] The batch was then incubated either without (A) or with addition of different concentrations of Mosd1 (B=10 μM Mossd1; C=20 μM Mosd1; D=40 μM Mosd1; E=80 μM Mosd1) for a further 40 minutes and was then placed on an iodixanol density gradient. The gradient was then centrifuged, wherein the contents of the sample (Aβ1-42 species of different size) diffused within the gradient in accordance with their size and shape. The gradient was fractionated after centrifugation (1-15), and the individual fractions were applied to a tris-tricine SDS gel. The contents per fraction were separated electrophoretically.

[3] = target: Aβ1-42 (Homo sapiens, UniProt P05067); assay: ThT test, modulation of Aβ1-42 aggregation; type: biochemical; settings: 10 μM Aβ1-42, equimolar peptide, versus Aβ1-42 alone = 100%
Description: FIG. 3: The average relative fluorescence from seven independently performed ThT experiments with standard deviation is shown. The dye Thioflavin T (ThT) binds to β-pleated sheet structures in the batch and thereupon changes its fluorescence spectrum. […] The time in which the logarithmic rise of the fluorescence signal transitioned into a stationary phase was set to 100%.

[4] = system: PC-12 cells; assay: MTT reduction test, Aβ1-42-induced cell toxicity; type: cell-based; settings: 0.1% TritonX-100, positive control for cell toxicity
Protocol: The samples were placed in the culture medium of the cells and were incubated over 24 hours with the cells at 37° C. The viability of the cells was then determined on the basis of an MTT test. Here, a metabolic reactant was supplied to the cells, which reactant could be converted by metabolically active cells (living cells). Formazan crystals are the product of this conversion and can be dissolved. The coloration of the medium after solubilization corresponds to the conversion rate of the reactant and therefore the viability of the cells. Untreated cells (medium, white chequered pattern) served as living control, and the proportion of vital cells was defined as 100%. The values of the other batches were normalized to this value.

[5] = system: transgenic AD mice; settings: oral administration in drinking water; cited from earlier work

T1 sequence (P05067 672-713): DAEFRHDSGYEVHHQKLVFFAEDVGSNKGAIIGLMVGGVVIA
Chain of Aβ1-42 (P05067 672-713 limits assumed): as the sequence (P05067 672-713) above
Chain of Aβ1-42 species of different size (P05067 672-713 limits assumed): as the sequence (P05067 672-713) above

Substance	Difference in signal strength between Aβ1-42 monomers (100%) and Aβ1-42 oligomers and fibrils [1] [%]	relative ThT fluorescence (formation of β-pleated sheet structures) [3]	other results
GTMLKFSGMNLT (H-G[dT][dM][dL][dK][dF][dS]G[dM][dN][dL][dT]-NH2; SMILES CSCC[C@@H](NC(=O)CNC(=O)[C@@H](CO)NC(=O)[C@@H](Cc1ccccc1)NC(=O)[C@@H](CCCCN)NC(=O)[C@@H](CC(C)C)NC(=O)[C@@H](CCSC)NC(=O)[C@H](NC(=O)CN)[C@H](C)O)C(=O)N[C@H](CC(N)=O)C(=O)N[C@H](CC(C)C)C(=O)N[C@@H](C(N)=O)[C@H](C)O) [Mosd3]	59.955	increase the ThT fluorescence	oligomeric Aβ1-42 species (fractions 4-7) [2]: reduce; proportions of high-molecular Aβ1-42 species (fractions 10-14) [2]: increase
HNWFYWTTEPYD (H-[dH][dN][dW][dF][dY][dW][dT][dT][dE][dP][dY][dD]-NH2; SMILES C[C@H](O)[C@@H](NC(=O)[C@@H](Cc1c[nH]c2ccccc12)NC(=O)[C@@H](Cc1ccc(O)cc1)NC(=O)[C@@H](Cc1ccccc1)NC(=O)[C@@H](Cc1c[nH]c2ccccc12)NC(=O)[C@@H](CC(N)=O)NC(=O)[C@H](N)Cc1c[nH]cn1)C(=O)N[C@@H](C(=O)N[C@H](CCC(=O)O)C(=O)N1CCC[C@@H]1C(=O)N[C@H](Cc1ccc(O)cc1)C(=O)N[C@H](CC(=O)O)C(N)=O)[C@H](C)O) [Mosd4]	69.154	only a very small influence	–
HTWTTYDYVWRL (H-[dH][dT][dW][dT][dT][dY][dD][dY][dV][dW][dR][dL]-NH2; SMILES CC(C)C[C@@H](NC(=O)[C@@H](CCCNC(=N)N)NC(=O)[C@@H](Cc1c[nH]c2ccccc12)NC(=O)[C@H](NC(=O)[C@@H](Cc1ccc(O)cc1)NC(=O)[C@@H](CC(=O)O)NC(=O)[C@@H](Cc1ccc(O)cc1)NC(=O)[C@H](NC(=O)[C@H](NC(=O)[C@@H](Cc1c[nH]c2ccccc12)NC(=O)[C@H](NC(=O)[C@H](N)Cc1c[nH]cn1)[C@H](C)O)[C@H](C)O)[C@H](C)O)C(C)C)C(N)=O) [Mosd2]	67.145	increase the ThT fluorescence	oligomeric Aβ1-42 species (fractions 4-7) [2]: reduce; proportions of high-molecular Aβ1-42 species (fractions 10-14) [2]: increase
STLHFYTAFLNK (H-[dS][dT][dL][dH][dF][dY][dT][dA][dF][dL][dN][dK]-NH2; SMILES CC(C)C[C@@H](NC(=O)[C@@H](Cc1ccccc1)NC(=O)[C@@H](C)NC(=O)[C@H](NC(=O)[C@@H](Cc1ccc(O)cc1)NC(=O)[C@@H](Cc1ccccc1)NC(=O)[C@@H](Cc1c[nH]cn1)NC(=O)[C@@H](CC(C)C)NC(=O)[C@H](NC(=O)[C@H](N)CO)[C@H](C)O)[C@H](C)O)C(=O)N[C@H](CC(N)=O)C(=O)N[C@H](CCCCN)C(N)=O) [Mosd6]	67.981	–	–
TritonX-100 [reference compound]	–	–	amount of viable cells (untreated cells = 100%) [4]: 1.5%
VHWDFRQWWQPS (H-[dV][dH][dW][dD][dF][dR][dQ][dW][dW][dQ][dP][dS]-NH2; SMILES CC(C)[C@@H](N)C(=O)N[C@H](Cc1c[nH]cn1)C(=O)N[C@H](Cc1c[nH]c2ccccc12)C(=O)N[C@H](CC(=O)O)C(=O)N[C@H](Cc1ccccc1)C(=O)N[C@H](CCCNC(=N)N)C(=O)N[C@H](CCC(N)=O)C(=O)N[C@H](Cc1c[nH]c2ccccc12)C(=O)N[C@H](Cc1c[nH]c2ccccc12)C(=O)N[C@H](CCC(N)=O)C(=O)N1CCC[C@@H]1C(=O)N[C@H](CO)C(N)=O) [Mosd20]	45.718	–	–
VHWDFRQWWQQS (H-[dV][dH][dW][dD][dF][dR][dQ][dW][dW][dQ][dQ][dS]-NH2; SMILES CC(C)[C@@H](N)C(=O)N[C@H](Cc1c[nH]cn1)C(=O)N[C@H](Cc1c[nH]c2ccccc12)C(=O)N[C@H](CC(=O)O)C(=O)N[C@H](Cc1ccccc1)C(=O)N[C@H](CCCNC(=N)N)C(=O)N[C@H](CCC(N)=O)C(=O)N[C@H](Cc1c[nH]c2ccccc12)C(=O)N[C@H](Cc1c[nH]c2ccccc12)C(=O)N[C@H](CCC(N)=O)C(=O)N[C@H](CCC(N)=O)C(=O)N[C@H](CO)C(N)=O) [Mosd12]	59.012	–	–
YSFHFEMNMGNY (H-[dY][dS][dF][dH][dF][dE][dM][dN][dM]G[dN][dY]-NH2; SMILES CSCC[C@@H](NC(=O)[C@@H](CC(N)=O)NC(=O)[C@@H](CCSC)NC(=O)[C@@H](CCC(=O)O)NC(=O)[C@@H](Cc1ccccc1)NC(=O)[C@@H](Cc1c[nH]cn1)NC(=O)[C@@H](Cc1ccccc1)NC(=O)[C@@H](CO)NC(=O)[C@H](N)Cc1ccc(O)cc1)C(=O)NCC(=O)N[C@H](CC(N)=O)C(=O)N[C@H](Cc1ccc(O)cc1)C(N)=O) [Mosd13]	57.246	–	–
rprtrlhthrnr [Mosd D3]	–	–	cognitive capabilities [5]: significantly improved cognitive capabilities; plaques [5]: much fewer plaques
